Laboratory results: paper PMC10776498

B1: GSDMD (gasdermin-D): S338A (protein)
parent chain: MGSAFERVVRRVVQELDHGGEFIPVTSLQSSTGFQPYCLVVRKPSSSWFWKPRYKCVNLSIKDILEPDAAEPDVQRGRSFHFYDAMDGQIQGSVELAAPGQAKIAGGAAVSDSSSTSMNVYSLSVDPNTWQTLLHERHLRQPEHKVLQQLRSRGDNVYVVTEVLQTQKEVEVTRTHKREGSGRFSLPGATCLQGEGQGHLSQKKTVTIPSGSTLAFRVAQLVIDSDLDVLLFPDKKQRTFQPPATGHKRSTSEGAWPQLPSGLSMMRCLHNFLTDGVPAEGAFTEDFQGLRAEVETISKELELLDRELCQLLLEGLEGVLRDQLALRALEEALEQGQSLGPVEPLDGPAGAVLECLVLSSGMLVPELAIPVVYLLGALTMLSETQHKLLAEALESQTLLGPLELVGSLLEQSAPWQERSTMSLPPGLLGNSWGEGAPAWVLLDECGLELGEDTPHVCWEPQAQGRMCALYASLALLSGLSQEPH
B2: GSDMD (gasdermin-D): TMG (protein)
parent chain: MGSAFERVVRRVVQELDHGGEFIPVTSLQSSTGFQPYCLVVRKPSSSWFWKPRYKCVNLSIKDILEPDAAEPDVQRGRSFHFYDAMDGQIQGSVELAAPGQAKIAGGAAVSDSSSTSMNVYSLSVDPNTWQTLLHERHLRQPEHKVLQQLRSRGDNVYVVTEVLQTQKEVEVTRTHKREGSGRFSLPGATCLQGEGQGHLSQKKTVTIPSGSTLAFRVAQLVIDSDLDVLLFPDKKQRTFQPPATGHKRSTSEGAWPQLPSGLSMMRCLHNFLTDGVPAEGAFTEDFQGLRAEVETISKELELLDRELCQLLLEGLEGVLRDQLALRALEEALEQGQSLGPVEPLDGPAGAVLECLVLSSGMLVPELAIPVVYLLGALTMLSETQHKLLAEALESQTLLGPLELVGSLLEQSAPWQERSTMSLPPGLLGNSWGEGAPAWVLLDECGLELGEDTPHVCWEPQAQGRMCALYASLALLSGLSQEPH

Tests used:
[1] = western blot of GSDMD-N, HEK293T input; settings: control: GSDMD-WT
[2] = western blot of GSDMD-N, HUVECs; settings: glycan gained; control: HUVECs, LPS without TMG

Protein | other: proteolytic processing ([1]; glycan lost, LPS + TMG) | other: proteolytic processing ([1]; glycan gained, LPS without TMG) | other: proteolytic processing [2]
B1 | increases | – | –
B2 | – | decreases | decreases
